The text below walks through data of publication PMC5290487.

The first assay addresses MK2 (mitogen-activated protein kinase-activated protein kinase 2), endogenous in COS-1 cells. Kind of assay: co-immunoprecipitation (IP of endogenous MK2, western blot for PDE4A5), quantified. The following applies: COS-1 cell lysates; parent: est. 100; read off a plot. (In general: In western blotting, separated proteins are transferred to a membrane and probed.)
With “PDE4A5 (long PDE4A isoform), wild type (from UniProt P54748-1) F141A”, the percent of parent (% binding of MK2 in Wt IP) was 58.
With “PDE4A5 (long PDE4A isoform), wild type (from UniProt P54748-1) F141A; L142A; Y143A”, the percent of parent (% binding of MK2 in Wt IP) came to 1.5.
In the case of “PDE4A5 (long PDE4A isoform), wild type (from UniProt P54748-1) L142A”, the percent of parent (% binding of MK2 in Wt IP) was determined as 73.
As to “PDE4A5 (long PDE4A isoform), wild type (from UniProt P54748-1) Y143A”, the percent of parent (% binding of MK2 in Wt IP) is 79.

The target is the same in the next assay. The assay is described as above. The note with it: COS-1 cell lysates; parent: est. 100; read off a plot. This is another data set of the same source.
Regarding “PDE4A5 (long PDE4A isoform), wild type (from UniProt P54748-1) F141A; L142A; Y143A”, the percent of parent (% binding of MK2 in Wt IP) was found to be 2.
Consider “PDE4A5 (long PDE4A isoform), wild type (from UniProt P54748-1) F693A; Q694A; F695A”, for which the percent of parent (% binding of MK2 in Wt IP) came to 63.
As to “PDE4A5 (long PDE4A isoform), wild type (from UniProt P54748-1) I654A; L655A; D656A”, the percent of parent (% binding of MK2 in Wt IP) stood at 88.
In the case of “PDE4A5 (long PDE4A isoform), wild type (from UniProt P54748-1) T698A; L699A; E700A; E701A”, the percent of parent (% binding of MK2 in Wt IP) was determined as 67.
Regarding “PDE4A5 (long PDE4A isoform), wild type (from UniProt P54748-1) W664A; Y665A; H666A; S667A”, the percent of parent (% binding of MK2 in Wt IP) was 80.
